The record followed here is patent US20230183379A1 (published 2023).

The target in the assay is transferrin receptor 1 (TfR1), human (human, UniProt P02786 1-760). The assay can be described thus: FACS binding, Raji cells, 4 °C.
Chain of transferrin receptor 1 (TfR1), human (P02786 whole entry): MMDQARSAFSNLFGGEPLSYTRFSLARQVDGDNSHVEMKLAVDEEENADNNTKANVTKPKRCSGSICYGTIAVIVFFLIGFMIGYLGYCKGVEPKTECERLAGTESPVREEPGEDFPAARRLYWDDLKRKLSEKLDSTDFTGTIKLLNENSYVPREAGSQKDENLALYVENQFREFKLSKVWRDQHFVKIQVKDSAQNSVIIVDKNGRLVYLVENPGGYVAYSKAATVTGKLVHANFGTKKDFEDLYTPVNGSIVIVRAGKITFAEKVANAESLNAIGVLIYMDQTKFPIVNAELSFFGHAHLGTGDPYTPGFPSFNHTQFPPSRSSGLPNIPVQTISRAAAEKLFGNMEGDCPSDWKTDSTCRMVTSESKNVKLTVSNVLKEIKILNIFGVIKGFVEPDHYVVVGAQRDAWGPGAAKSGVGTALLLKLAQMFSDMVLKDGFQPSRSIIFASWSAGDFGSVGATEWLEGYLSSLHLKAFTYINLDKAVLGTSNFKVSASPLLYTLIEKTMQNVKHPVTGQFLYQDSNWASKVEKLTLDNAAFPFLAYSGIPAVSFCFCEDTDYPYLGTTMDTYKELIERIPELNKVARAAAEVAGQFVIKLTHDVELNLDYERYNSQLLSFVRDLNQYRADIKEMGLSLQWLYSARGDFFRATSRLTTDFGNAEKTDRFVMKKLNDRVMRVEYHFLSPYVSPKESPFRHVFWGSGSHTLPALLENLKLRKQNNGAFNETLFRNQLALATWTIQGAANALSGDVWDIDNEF

B1: F12-IgG1 (IgG1 anti-TfR1 F12 antibody) (antibody, V domains shown)
VH: QVQLQESGGGLVQPGGSLRLSCAASGFSFNTYTMHWVRQAPGKGLEWVADIAYDGSTKYYADSVKGRFTISRDNAKNSLYLQMNSLRAEDTAVYYCARDAVAGEGYFDLWGRGTLVTVSS
VL: QSALTQDPAVSVALGQTVRITCQGDSLRSYYASWYQQLPGTAPKLLIYRNNQRPSGVPDRFSGSKSGTSASLAISGLRSEDEADYYCAAWDDSLSAWVFGGGTKLTVLG
For B1, the EC50 is 1.13 nM.
